In publication PMC11890865:
One block for each substance: values may come before it.

Key:
Experiment in all cases: cryo-EM structure; ZorAB complex co-expressed from one operon and co-purified in LMNG; TBS (100 mM Tris, 150 mM NaCl, 1 mM EDTA, pH 8.0) plus 0.02% LMNG; Quantifoil Au grids, Titan Krios G4 at 300 kV
[1] = biological target: ZorA I from Shewanella sp. ANA-3 (Zorya type I) (Shewanella sp. strain ANA-3)
[2] = biological target: ZorA II from Sulfuricurvum kujiense DSM 16994 (Zorya type II) (Sulfuricurvum kujiense DSM 16994)
[3] = biological target: ZorB I from Shewanella sp. ANA-3 (Zorya type I) (Shewanella sp. strain ANA-3)
[4] = biological target: ZorB II from Sulfuricurvum kujiense DSM 16994 (Zorya type II) (Sulfuricurvum kujiense DSM 16994)

stoichiometry N [1]: 5
Substance: ZorA I from Shewanella sp. ANA-3 (Zorya type I) (natural protein)

stoichiometry N [2]: 5
Substance: ZorA II from Sulfuricurvum kujiense DSM 16994 (Zorya type II) (natural protein)

stoichiometry N [3]: 2
Substance: ZorB I from Shewanella sp. ANA-3 (Zorya type I) (natural protein)

stoichiometry N [4]: 2
Substance: ZorB II from Sulfuricurvum kujiense DSM 16994 (Zorya type II) (natural protein)
